According to paper PMC10993987 (Molecular Cancer Therapeutics, 2023):
Each block holds one molecule with its values, some of them ahead of it.

Assays:
[1] = biological target: His-tagged Fc-fused human IL12Rβ2 (human) (UniProt Q99665); assay: SPR
[2] = biological target: T1, His-tagged Fc-fused human IL12Rβ2 (human, UniProt Q99665 24-622); assay: SPR
T1 sequence (looked up): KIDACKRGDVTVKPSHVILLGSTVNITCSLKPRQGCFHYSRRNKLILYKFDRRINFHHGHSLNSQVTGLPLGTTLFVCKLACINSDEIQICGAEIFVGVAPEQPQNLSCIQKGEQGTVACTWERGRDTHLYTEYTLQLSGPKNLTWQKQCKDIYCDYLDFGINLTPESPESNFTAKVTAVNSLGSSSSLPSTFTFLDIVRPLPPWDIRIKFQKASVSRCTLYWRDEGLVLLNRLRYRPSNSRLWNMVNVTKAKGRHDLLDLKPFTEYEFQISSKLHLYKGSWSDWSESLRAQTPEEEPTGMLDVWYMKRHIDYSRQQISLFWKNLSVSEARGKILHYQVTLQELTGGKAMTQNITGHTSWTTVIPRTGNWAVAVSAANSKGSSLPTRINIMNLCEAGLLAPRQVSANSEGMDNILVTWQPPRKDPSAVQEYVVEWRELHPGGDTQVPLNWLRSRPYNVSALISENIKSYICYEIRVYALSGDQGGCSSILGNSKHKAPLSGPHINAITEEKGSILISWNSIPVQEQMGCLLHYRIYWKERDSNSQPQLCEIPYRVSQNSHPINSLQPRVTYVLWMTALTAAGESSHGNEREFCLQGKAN

Kd [1]: 7.97 nM
Molecule: proteolytically cleaved XTX301 (active IL12 released from XTX301) (ligand)

Kd [2]: 0.93 nM
B1: wild-type recombinant human IL12 (complex)
chain 1: RNLPVATPDPGMFPCLHHSQNLLRAVSNMLQKARQTLEFYPCTSEEIDHEDITKDKTSTVEACLPLELTKNESCLNSRETSFITNGSCLASRKTSFMMALCLSSIYEDLKMYQVEFKTMNAKLLMDPKRQIFLDQNMLAVIDELMQALNFNSETVPQKSSLEEPDFYKTKIKLCILLHAFRIRAVTIDRVMSYLNAS
chain 2: IWELKKDVYVVELDWYPDAPGEMVVLTCDTPEEDGITWTLDQSSEVLGSGKTLTIQVKEFGDAGQYTCHKGGEVLSHSLLLLHKKEDGIWSTDILKDQKEPKNKTFLRCEAKNYSGRFTCWWLTTISTDLTFSVKSSRGSSDPQGVTCGAATLSAERVRGDNKEYEYSVECQEDSACPAAEESLPIEVMVDAVHKLKYENYTSSFFIRDIIKPDPPKNLQLKPLKNSRQVEVSWEYPDTWSTPHSYFSLTFCVQVQGKSKREKKDRVFTDKTSATVICRKNASISVRAQDRYYSSSWSEWASVPCS
